Test results taken from PMC7656253, “Recovery of motor function of chronic spinal cord injury by extracellular pyruvate kinase isoform M2 and the underlying mechanism” (Scientific Reports, 2020).

Biological target: T1, Recombinant human valosin-containing protein (VCP) (human, UniProt P55072 1-806)
T1 construct: valosin-containing protein (VCP), human, recombinant; Commercial protein; The supplier is printed as 'Abnoba', probably Abnova; No catalogue number or tag is printed; also called recombinant VCP; source: bought: Abnoba, Taipei, Taiwan
Experiment: co-IP; recombinant mouse PKM2 (100 pmol) and recombinant human VCP (10 pmol) coincubated 1 h at 25 °C; precipitated with rabbit anti-PKM2 antibody or normal mouse IgG cross-linked to Dynabeads Protein G, 2 h at 25 °C; Western blot for PKM2 and VCP
Settings: both partners purified

T1 sequence (P55072 whole entry): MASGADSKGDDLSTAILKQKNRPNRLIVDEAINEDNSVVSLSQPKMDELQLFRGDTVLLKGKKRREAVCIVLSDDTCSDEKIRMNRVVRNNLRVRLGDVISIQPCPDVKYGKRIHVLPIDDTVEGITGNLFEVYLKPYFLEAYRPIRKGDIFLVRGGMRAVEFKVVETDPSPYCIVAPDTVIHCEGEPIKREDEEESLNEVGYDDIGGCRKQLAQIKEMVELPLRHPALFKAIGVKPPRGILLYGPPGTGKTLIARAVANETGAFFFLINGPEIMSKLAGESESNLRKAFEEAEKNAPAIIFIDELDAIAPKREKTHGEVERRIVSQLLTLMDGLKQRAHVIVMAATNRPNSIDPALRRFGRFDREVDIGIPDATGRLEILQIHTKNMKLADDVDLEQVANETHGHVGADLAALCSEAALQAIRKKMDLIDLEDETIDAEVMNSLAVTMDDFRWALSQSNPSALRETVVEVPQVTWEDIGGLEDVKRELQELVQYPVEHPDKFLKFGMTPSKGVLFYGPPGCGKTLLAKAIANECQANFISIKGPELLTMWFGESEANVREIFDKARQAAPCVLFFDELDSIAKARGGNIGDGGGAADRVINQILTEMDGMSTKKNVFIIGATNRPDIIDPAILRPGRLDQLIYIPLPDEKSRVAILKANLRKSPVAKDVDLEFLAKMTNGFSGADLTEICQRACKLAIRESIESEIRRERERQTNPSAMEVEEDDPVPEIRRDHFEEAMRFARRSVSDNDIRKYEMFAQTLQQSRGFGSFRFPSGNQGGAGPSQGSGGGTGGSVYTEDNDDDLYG

binding result: binds
B1: Recombinant mouse pyruvate kinase isoform M2 (PKM2) (enzyme)
chain: not shown
notes: pyruvate kinase isoform M2 (PKM2), mouse, recombinant; Commercial protein; No catalogue number, expression host or tag is printed; also called recombinant PKM2; extracellular PKM2; source: bought: Abcam
